From patent US20040229301A1 (published 2004)
Substitutions are numbered along the chain they refer to. Values joined by “and” are separate entries in the source; they are usually repeats but may differ in a detail not shown here. Equal entries are not always repeated.

B1: monoclonal anti-TF antibody TF278 (hybridoma cell line TF278, ATCC PTA-5676) (antibody, IgG1, V domains shown)
VH: EVQLQQSGAELMKPGASVKISCKATGYTFSSYWIEWVKQRPGHGLEWIGEILPGSASTKYNEKFKGKATFTADTSSNTAYMQLSSLTSEDSAVYYCARDYYYGSSYGFAYWGQGTLVTVSS
VL: QAVVTQESALTTSPGETVTLTCRSSTGAVTTSNYANWVQEKPDHLFTGLIGGTNNRGPGVPARFSGSLIGDKAALTITGAQTEDEAVYFCALWYSNHWVFGGGTKLTVLG
B2: monoclonal anti-TF antibody TF392 (hybridoma cell line TF392, ATCC PTA-5677) (antibody, IgG1, V domains shown)
VH: QVQLKESGAELMKPGASVKISCKATGYTFSSYWIEWVKQRPGHGLEWIGEILPGSGSTNYNEKFKGKATFTADTSSNTAYMQLSSLTSEDSAVYYCARDRNGYVNYFDSWGQGTTLTVSS
VL: B1 VL with G57A, V87I
B3: monoclonal anti-TF antibody TF277 (hybridoma cell line TF277, ATCC PTA-5675) (antibody, IgG1, V domains shown)
VH: QVQLQQPGAELVKPGASVKLSCKTSGYTFTSYWMHWVKQRPGQGLEWIGEIDPSDSYTNYNQKFKGKATLTVDKSSSTAYMQLSSLTSEDSAVYYCTYYVNYYAMDYWGQGTSVTVSS
VL: QIVLTQSPAIMSASLGEEITLTCSASSSVSYMHWYQQKSGTSPKLLIYSTSNLASGVPSRFSGSGSGTFYSLTISSVEAEDAADYYCHQWSSYPYTFGGGTKLEIK
B4: monoclonal anti-TF antibody TF9 (hybridoma cell line TF9, ATCC PTA-5674) (antibody, V domains shown)
VH: DVKLQESGPDLVKPSQSLSLTCTVTGYSITSGYSWHWIRQFPGNKLEWMGYIHYSGSTKYNPSLKSRISITRDTSKNQFFLQLNSVTTEDTATYYCARLWSWYFDVWGAGTTVTVSS
VL: NIMMTQSPSSLAVSAGEKVTMSCKSSQSVLYSSNQKNYLAWYQQKPGQSPKLLIYWASTRESGVPDRFTGSGSGTDFTLTISSVQAEDLAVYYCHQYLSSYTFGGGTKLEIK
B5: monoclonal anti-TF antibody TF196 (hybridoma cell line TF196, ATCC PTA-5196) (antibody, V domains shown)
VH: QVQLKQSGPELEKPGASVKISCKASGYSFTGYNMNWVKQSNGKSLEWIGNIDPYYGGTSYNQKFKGKATLTVDKSSNTAYMHLKSLTSEDSAVYYCARDSSSWFAYWGQGTLVTVSA
VL: DIQLTQSPASLSASVGETVTITCRASGNIHNYLAWYQQKQGKSPQLLVYNAKTLADGVPSRFSGSGSGTQYSLKINSLQPEDFGSYYCQHFWITPWTFGGGTKLEI
notes: Mouse hybridoma IgG
B6: monoclonal anti-TF antibody TF260 (hybridoma cell line TF260, ATCC PTA-5197) (antibody, V domains shown)
VH: QVQLKQSGAELMKPGASVKISCKATGYTFSSYWIEWVKQRPGHGLEWIGEILPGSGSTNYNEKFKGKATFTADTSSNTAYMQLSSLTSEDSAVYYCAREDRYDGDYWGQGTTLTVS
VL: B1 VL with G57A, V87I

biological target: T1, human tissue factor, endogenous, on tumor cell lines (H596; TF-positive SW900) (human, UniProt P13726 33-295); experiment: FACS on H596 cells
T1 construct: whole, on cells; also called hTF

EC50 | Bmax | Binder
0.48 nM and 1.14 nM | – | B1
6.29 nM | 58 | B2
0.48 nM and 0.71 nM | – | B3

biological target: full-length human tissue factor with C-terminal RGS-His6 tag, stably expressed on CHO-K1 cells (human, UniProt P13726 33-295); experiment: cell-based or functional assay

Coagulation (seconds), Ab 10 ug/ml | Binder
190 s | B1
210 s | B2
195 s | B4
202 s | B3

biological target: T2, soluble human tissue factor (extracellular domain of hTF with C-terminal RGS-His6 tag) (human, UniProt P13726 33-251); experiment: BIAcore X, soluble hTF immobilized on CM5 chip, mAb injected
T2 construct: leader left out (range computed from the stated lengths); Expressed in HEK293, purified on Ni-agarose and by gel filtration; also called soluble hTF; recombinant soluble hTF
Protocol: Binding properties of anti-hTF mAbs were evaluated using BIAcore X. Briefly, a CM5 BIAcore biosensor chip was docked into the instrument and activated with 55 μl of 1:1 NHS/EDC at room temperature. The recombinant soluble hTF and BSA (10 μg/ml in 0.05 M acetate buffer, pH 4.5) were immobilized on the activated chips in flow cells 1 and 2, respectively. The immobilization was carried out at a flow rate of 5 μl/min until a resonance response of 1000-2000 RU was achieved. The chip was then blocked by injection of 55 μl of ethanolamine-HCl, pH 8.5 followed by 5 washes with 50 mM NaOH, 1 M NaCl. To measure the binding of anti-hTF mAbs to the soluble hTF immobilized to the chip, 30 μl of anti-hTF mAbs at varying concentrations in BIAcore running buffer (HBS-EP, Biacore AB, Uppsala, Sweden, Cat. #1001-08) were injected over the sensor surface at a flow rate of 5 μl/min. Following completion of the injection phase, dissociation was monitored in BIAcore running buffer at the same flow rate for 360 seconds. The surface was regenerated between injections using 30 μl of 50 mM NaOH-1 M NaCl. Individual sensorgrams were analyzed using BIAsimulation software.

Kd | koff | kon | Binder
66.3 nM | 0.00279 s⁻¹ | 42100 M⁻¹ s⁻¹ | B5
0.789 nM | 0.000138 s⁻¹ | – | B1
19.3 nM | 0.000191 s⁻¹ | 9910 M⁻¹ s⁻¹ | B6
2.46 nM | 0.00013 s⁻¹ | – | B2
1.84 nM | 0.000364 s⁻¹ | – | B4
7.14 nM | 0.00312 s⁻¹ | – | B3
